A word on the Kd: it is the concentration at which binding is half-saturated.

Assay [1] deals with Cse4-NCP (Cse4 containing nucleosome core particle) (budding yeast) (UniProt P36012). The assay is described as follows: cross-linking.
The next assay deals with T1, Dsn1/Nsl1 (budding yeast, UniProt P40568;Q12143).
T1 sequence 1: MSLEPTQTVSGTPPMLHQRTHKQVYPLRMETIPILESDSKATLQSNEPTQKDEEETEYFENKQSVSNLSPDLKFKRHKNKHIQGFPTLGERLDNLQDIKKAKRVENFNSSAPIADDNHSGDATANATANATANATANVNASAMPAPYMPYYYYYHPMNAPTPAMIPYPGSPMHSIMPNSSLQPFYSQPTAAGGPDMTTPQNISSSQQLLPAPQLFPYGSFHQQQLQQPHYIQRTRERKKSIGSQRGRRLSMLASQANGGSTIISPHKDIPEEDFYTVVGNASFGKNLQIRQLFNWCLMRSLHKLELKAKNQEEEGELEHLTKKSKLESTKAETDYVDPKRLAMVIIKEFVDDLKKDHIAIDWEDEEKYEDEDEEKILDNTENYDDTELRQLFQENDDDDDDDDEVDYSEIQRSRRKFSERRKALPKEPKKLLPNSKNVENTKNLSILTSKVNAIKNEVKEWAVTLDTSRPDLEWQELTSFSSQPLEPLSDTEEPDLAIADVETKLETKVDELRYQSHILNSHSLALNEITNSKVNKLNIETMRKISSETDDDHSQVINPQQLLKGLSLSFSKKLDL
T1 sequence 2: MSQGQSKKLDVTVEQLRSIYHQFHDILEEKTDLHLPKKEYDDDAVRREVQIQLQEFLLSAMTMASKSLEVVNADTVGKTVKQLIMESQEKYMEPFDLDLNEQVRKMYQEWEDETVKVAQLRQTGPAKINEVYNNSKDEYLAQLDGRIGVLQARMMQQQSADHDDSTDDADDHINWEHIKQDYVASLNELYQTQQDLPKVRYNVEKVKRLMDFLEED
The assay is described as follows: SEC. Background: In gel filtration, larger molecules generally elute earlier.

The next assay deals with Ame1/Okp1 complex (budding yeast, UniProt P38313;P53298). Put plainly: pull-down.
Ame1/Okp1 complex, sequence (P38313 whole entry, chain 1 of 2): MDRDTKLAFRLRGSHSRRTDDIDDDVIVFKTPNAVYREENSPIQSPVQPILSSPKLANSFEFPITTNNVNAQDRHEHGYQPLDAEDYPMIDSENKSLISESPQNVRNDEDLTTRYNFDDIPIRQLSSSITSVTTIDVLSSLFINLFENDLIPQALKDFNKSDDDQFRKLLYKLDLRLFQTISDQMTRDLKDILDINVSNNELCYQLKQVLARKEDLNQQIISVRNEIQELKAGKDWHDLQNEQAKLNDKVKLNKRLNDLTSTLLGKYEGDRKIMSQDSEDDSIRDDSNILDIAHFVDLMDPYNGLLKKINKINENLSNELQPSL
Ame1/Okp1 complex, sequence (P53298 whole entry, chain 2 of 2): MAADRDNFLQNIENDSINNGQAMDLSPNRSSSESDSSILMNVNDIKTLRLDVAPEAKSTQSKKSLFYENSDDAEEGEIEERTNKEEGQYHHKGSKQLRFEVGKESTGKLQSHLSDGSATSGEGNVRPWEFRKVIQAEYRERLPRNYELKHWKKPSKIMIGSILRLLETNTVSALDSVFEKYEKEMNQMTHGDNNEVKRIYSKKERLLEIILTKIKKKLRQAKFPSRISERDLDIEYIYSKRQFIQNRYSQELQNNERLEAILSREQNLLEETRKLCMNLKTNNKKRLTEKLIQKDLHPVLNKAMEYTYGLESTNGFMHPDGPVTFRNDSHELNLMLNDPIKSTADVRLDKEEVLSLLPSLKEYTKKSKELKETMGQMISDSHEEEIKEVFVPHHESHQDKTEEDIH
Assay [2] has as its target Mif2* (Mif2-6xHis-6xFlag wild type, dephosphorylated and in vitro phosphorylated by Cdc5) (budding yeast, UniProt P35201 1-549). The assay is described as follows: pull-down.
Another assay has as its target Spc24/25 complex (budding yeast, UniProt Q04477;P40014). The assay is described as follows: cross-linking.

Spc24/25 complex, sequence (Q04477 whole entry, chain 1 of 2): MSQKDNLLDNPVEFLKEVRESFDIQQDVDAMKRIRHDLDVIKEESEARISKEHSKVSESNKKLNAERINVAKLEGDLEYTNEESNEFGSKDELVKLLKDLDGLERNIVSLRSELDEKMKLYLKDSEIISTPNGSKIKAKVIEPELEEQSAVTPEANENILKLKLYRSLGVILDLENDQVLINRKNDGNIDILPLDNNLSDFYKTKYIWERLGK
Spc24/25 complex, sequence (P40014 whole entry, chain 2 of 2): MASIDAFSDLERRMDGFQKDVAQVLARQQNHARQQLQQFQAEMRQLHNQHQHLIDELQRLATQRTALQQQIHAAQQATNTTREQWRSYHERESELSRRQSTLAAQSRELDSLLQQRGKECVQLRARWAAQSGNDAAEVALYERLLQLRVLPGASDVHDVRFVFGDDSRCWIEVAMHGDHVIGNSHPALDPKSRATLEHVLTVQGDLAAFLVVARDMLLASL

In the case of “Mif2* (Mif2-6xHis-6xFlag wild type, dephosphorylated and in vitro phosphorylated by Cdc5) (from UniProt P35201 1-549) (natural protein)”, the fold decrease of KD with MTW1c(Dsn1^S240D,S250D) against wild-type MTW1c in assay [1] was found to be 20 fold.

B1: Mtw1/Nnf1 (complex)
chain 1: MSAPTMRSTSILTEHLGYPPISLVDDIINAVNEIMYKCTAAMEKYLLSKSKIGEEDYGEEIKSGVAKLESLLENSVDKNFDKLELYVLRNVLRIPEEYLDANVFRLENQKDLVIVDENELKKSEEKLREKVNDVELAFKKNEMLLKRVTKVKRLLFTIRGFKQKLNELLKCKDDVQLQKILESLKPIDDTMTLLTDSLRKLYVDSESTSSTEEVEALLQRLKTNGKQNNKDFRTRYIDIRTNNVLRKLGLLGDKEDEKQSAKPDARTQAGDIVSIDIEEPQLDLLDDVL
chain 2: MVNSHGIRYIRLKQVFNRALDQSISKLQSWDKVSSCFPQYVNSKQGAINVANCQRQLTEFWTELCQREFKEIMEERNVEQKLNELDELILEAKERYTDRDQDEVNKGPAIDELSSKELVECHLYSQRMHAIHEIDERLAKVNEMNDQLAQELKDLETQVEVEKNEIGKMYDEYLGSHTDQPANVLLVQSLNDMVLELKENY
For the molecule B1, the binding result (with Dsn1/Nsl1; with Ame1/Okp1 complex; in assay [2]) was “binds” in each case.

On to NKDPNEVRSFLQDLSQVLARKSQGN [Cnn1^60-84 peptide], for which the Kd with Spc24/25 complex stood at 2600 nM. That is a single-digit micromolar value.

B2: Mif2^Δ200-230 mutant, in vitro phosphorylated by Cdc5 (natural protein)
chain: MDYMKLGLKSRKTGIDVKQDIPKDEYSMENIDDFFKDDETSLISMRRKSRRKSSLFLPSTLNGDTKNVLPPFLQSYKSQDDEVVQSPSGKGDGSRRSSLLSHQSNFLSPANDFEPIEEEPEQEENDIRGNDFATPITQKLSKPTYKRKYSTRYSLDTSESPSVRLTPDRITNKNVYSDVPDLVADEDDDDRVNTSLNTSDSGSDSASDSDGDNTYQEVEEEAEVNTNDNEDDYIRRQASDVVRTDSIIDRNGLRKSTRVKVAPLQYWRNEKIVYKRKSNKPVLDIDKIVTYDESEDEEEILAAQRRKKQKKKPTPTRPYNYVPTGRPRGRPKKDPNAKENLIPEDPNEDIIERIESGGIENGEWLKHGILEANVKISDTKEETKDEIIAFAPNLSQTEQVKDTKDENFALEIMFDKHKEYFASGILKLPAISGQKKLSNSFRTYITFHVIQGIVEVTVCKNKFLSVKGSTFQIPAFNEYAIANRGNDEAKMFFVQVTVSEDANDDNDKELDSTFDTFG
As to B2, in the assay with Ame1/Okp1 complex, the binding result was “binds”.

Values taken from doi:10.1101/2022.03.31.486303 (bioRxiv, 2022).
